The values that follow come from patent US20160274129.

The target in the series is T1, α-fructosyl-valyl-histidyl-leucyl-threonyl-proryl-glutamic acid.
T1 chain: VHLTPE

Changes are numbered by the printed parent chain.

B1: Cc95FX (protein)
chain: MAPSRANTSVIVVGGGGTIGSSTALHLVRSGYTPSNITVLDAYPIPSSQSAGNDLNKIMGIRLRNKVDLQLSLEARQMWREDDLFKEYFHNTGRLDCAHGEEGLADLRQAYQALLDANAGLEETTEWLDSEDEILKKMPLLSRDQIKGWKAVYSQDGGWLAAAKAINAIGEYLRAQGVKFGFGGAGSFKQPLLAEGVCIGVETVDGTRYYADKVVLAAGAWSPTLVELHEQCVSKAWVYGHIQLTPEEAAEYKNSPVVYNGDVGFFFEPNEHGVIKVCDEFPGFTRFKMHQPFGAKAPKRISVPRSHAKHPTDTIPDASEKSIRKAIATFLPKFTEKELFNRHLCWCTDTADAALLICEHPEWKNFVLATGDSGHSFKLLPNIGKHVVELLEGTLADDLAHAWRWRPGSGDALKSRRSAPAKDLADMPGWKHDDVVKSKL
B1 came in with a αF6P oxidation activity (crude enzyme; αFVH oxidation activity = 100) (relative (αFVH = 100)) of 0, a αF6P/αFV of 0 and a αF6P/αFVH of 0.

B2: Cc95FX-62D/63H/106K/110L/113K/353S (protein)
chain: B1 chain with R62D, L63H, D106K, A110L, A113K, A353S
Take B2: the αF6P oxidation activity (crude enzyme; αFVH oxidation activity = 100) (relative (αFVH = 100)) was determined as 237, the αF6P/αFV stood at 0.0144 and the αF6P/αFVH came to 2.37.

B3: CFP-T7-H3 (protein)
chain: MTSNRADTRVIVVGGGGTIGSSTALHLVRSGYAPANITVLDTFEIPSAQSAGHDLNKIMGIALRNKVDLQMSLEARQMWKEDELFQPFFHNTGRMDCEHTPEGIEDLKKFYQALHDAGAGLEKTHAWLDNEDEILSKMPLLQRDQIQGWKAIWSQDGGWLAAAKAINAIGQFLKERGVKFGFGGAGSFKQPLFDDEGTTCIGVETADGTKYYADKVVLAAGAWSPTLVDLEDQCCSKAWVYAHIQLTPEEAAEYKGVPVVYNGEFGFFFEPDEFGVIKVCDEFPGFSRFKEHQPYGAPSPKRISVPRSHAKHPTDTYPDASEVSIKKAIATFLPRFQDKELFNRALCWCTDTADAALLMCEHPKWKNFILATGDSGHSFKILPNVGKYVVELIEGRLPEEMAYQWRWRPGGDALKSRRAAPPKDLADMPGWKHDPKL
Take B3: the αF6P oxidation activity (crude enzyme; αFVH oxidation activity = 100) (relative (αFVH = 100)) turned out to be 0.0298, the αF6P/αFV is 0.000205 and the αF6P/αFVH worked out at 0.000298.

B4: CFP-T7-H29 (protein)
chain: B3 chain with A62D, L63H, D106K, F110L, A113K, A419K
As for B4, the αF6P oxidation activity (crude enzyme; αFVH oxidation activity = 100) (relative (αFVH = 100)) worked out at 111, the αF6P oxidation activity ratio (crude enzyme; CFP-T7-H26 = 100) (relative (CFP-T7-H26 = 100)) turned out to be 102, the αF6P/αFV was 0.111 and the αF6P/αFVH worked out at 1.11.

B5: CFP-T7-H27 (protein)
chain: B3 chain with A62D, L63K, D106K, F110L, A113K
As to B5, the αF6P oxidation activity ratio (crude enzyme; CFP-T7-H20 = 100) (relative (CFP-T7-H20 = 100)) worked out at 7.

B6: CFP-T7-H28 (protein)
chain: B3 chain with A62D, L63H, E102K, D106K, F110L, A113K
Turning to B6, the αF6P oxidation activity (crude enzyme; αFVH oxidation activity = 100) (relative (αFVH = 100)) is 134, the αF6P oxidation activity ratio (crude enzyme; CFP-T7-H26 = 100) (relative (CFP-T7-H26 = 100)) is 117, the αF6P/αFV came out at 0.124 and the αF6P/αFVH came out at 1.34.

B7: CFP-T7-H12 (protein)
chain: B3 chain with A62D, D106R, F110L
For B7, the αF6P oxidation activity (crude enzyme; αFVH oxidation activity = 100) (relative (αFVH = 100)) came out at 11.6, the αF6P oxidation activity ratio (crude enzyme; CFP-T7-H6 = 100) (relative (CFP-T7-H6 = 100)) stood at 636, the αF6P/αFV was 0.0165 and the αF6P/αFVH was found to be 0.116.

B8: CFP-T7-H24 (protein)
chain: B3 chain with A62D, L63A, D106K, F110L, A113K
For B8, the αF6P oxidation activity (crude enzyme; αFVH oxidation activity = 100) (relative (αFVH = 100)) turned out to be 86.7, the αF6P oxidation activity ratio (crude enzyme; CFP-T7-H20 = 100) (relative (CFP-T7-H20 = 100)) was 123, the αF6P/αFV amounted to 0.0461 and the αF6P/αFVH came to 0.867.

B9: CFP-T7-H6 (protein)
chain: B3 chain with A62D, F110L
As to B9, the αF6P oxidation activity (crude enzyme; αFVH oxidation activity = 100) (relative (αFVH = 100)) is 3, the αF6P oxidation activity ratio (crude enzyme; CFP-T7-H2 = 100) (relative (CFP-T7-H2 = 100)) turned out to be 513, the αF6P/αFV stood at 0.00347 and the αF6P/αFVH was determined as 0.03.

B10: CFP-T7-H1 (protein)
chain: B3 chain with F110Q
Regarding B10, the αF6P oxidation activity (crude enzyme; αFVH oxidation activity = 100) (relative (αFVH = 100)) was found to be 0.0316, the αF6P/αFV was found to be 0.000222 and the αF6P/αFVH amounted to 0.000316.

B11: CFP-T7-H11 (protein)
chain: B3 chain with A62D, D106K, F110L
Regarding B11, the αF6P oxidation activity (crude enzyme; αFVH oxidation activity = 100) (relative (αFVH = 100)) is 12.5, the αF6P oxidation activity ratio (crude enzyme; CFP-T7-H6 = 100) (relative (CFP-T7-H6 = 100)) is 951, the αF6P/αFV is 0.0245 and the αF6P/αFVH amounted to 0.125.

B12: CFP-T7-H26 (protein)
chain: B3 chain with A62D, L63H, D106K, F110L, A113K
As for B12, the αF6P oxidation activity (crude enzyme; αFVH oxidation activity = 100) (relative (αFVH = 100)) was determined as 84.3, the αF6P oxidation activity ratio (crude enzyme; CFP-T7-H20 = 100) (relative (CFP-T7-H20 = 100)) worked out at 142, the αF6P/αFV was 0.0773 and the αF6P/αFVH turned out to be 0.843.

B13: CFP-T7-H2-62E (protein)
chain: B3 chain with A62E, F110L
Take B13: the αF6P oxidation activity ratio (crude enzyme; CFP-T7-H2 = 100) (relative (CFP-T7-H2 = 100)) was 21.

B14: CFP-T7-H14 (protein)
chain: B3 chain with A62D, F110L, A113R
For B14, the αF6P oxidation activity (crude enzyme; αFVH oxidation activity = 100) (relative (αFVH = 100)) was determined as 4.22, the αF6P oxidation activity ratio (crude enzyme; CFP-T7-H6 = 100) (relative (CFP-T7-H6 = 100)) was 183, the αF6P/αFV is 0.00519 and the αF6P/αFVH stood at 0.0422.

B15: CFP-T7-H2-62Q (protein)
chain: B3 chain with A62Q, F110L
For B15, the αF6P oxidation activity ratio (crude enzyme; CFP-T7-H2 = 100) (relative (CFP-T7-H2 = 100)) is 11.

B16: CFP-T7-H8 (protein)
chain: B3 chain with A62D, R64E, F110L
Take B16: the αF6P oxidation activity ratio (crude enzyme; CFP-T7-H6 = 100) (relative (CFP-T7-H6 = 100)) worked out at 2.

B17: CFP-T7-H9 (protein)
chain: B3 chain with A62D, R64H, F110L
For B17, the αF6P oxidation activity ratio (crude enzyme; CFP-T7-H6 = 100) (relative (CFP-T7-H6 = 100)) is 44.

B18: CFP-T7-H4 (protein)
chain: B3 chain with F110Y
B18: the αF6P oxidation activity (crude enzyme; αFVH oxidation activity = 100) (relative (αFVH = 100)) came to 0.0341, the αF6P/αFV is 0.000319 and the αF6P/αFVH amounted to 0.000341.

B19: CFP-T7-H2-62N (protein)
chain: B3 chain with A62N, F110L
With B19, the αF6P oxidation activity ratio (crude enzyme; CFP-T7-H2 = 100) (relative (CFP-T7-H2 = 100)) turned out to be 120.

B20: CFP-T7-H7 (protein)
chain: B3 chain with A62D, R64A, F110L
B20: the αF6P oxidation activity ratio (crude enzyme; CFP-T7-H6 = 100) (relative (CFP-T7-H6 = 100)) was found to be 17.

B21: CFP-T7-H13 (protein)
chain: B3 chain with A62D, F110L, A113K
In the case of B21, the αF6P oxidation activity (crude enzyme; αFVH oxidation activity = 100) (relative (αFVH = 100)) was 4.33, the αF6P oxidation activity ratio (crude enzyme; CFP-T7-H6 = 100) (relative (CFP-T7-H6 = 100)) was determined as 207, the αF6P/αFV was 0.00579 and the αF6P/αFVH was 0.0433.

B22: CFP-T7-H25 (protein)
chain: B3 chain with A62D, L63D, D106K, F110L, A113K
B22: the αF6P oxidation activity ratio (crude enzyme; CFP-T7-H20 = 100) (relative (CFP-T7-H20 = 100)) worked out at 24.

B23: CFP-T7-H10 (protein)
chain: B3 chain with A62D, D106A, F110L
For B23, the αF6P oxidation activity ratio (crude enzyme; CFP-T7-H6 = 100) (relative (CFP-T7-H6 = 100)) was found to be 301.

B24: FAOAo2 (protein)
chain: MTVTKSSSILIIGAGTWGASTALHLGRRGYTNVTVLDPYTVPSAISAGNDVNKIISSGQYSNKKDEIEVNEILAEEAFKGWTTDPLFKPYYHDTGVVMSACSSAGLDRLGIRVRPEEEPDVSEVTKPEHFRQLAPAVLKGNFPGWRGYHIRSNAGWAHARNALVAAIREAEKLGVKFVTGTQGRVITLIFENNDVKGAVTADGKIWRAEQTVLCAGANAAQFLDFKDQLRPTAWTLAHIRLKPEERALYKNLPVIFNIEKGFFFEPDEERGEIKICDEHPGYTNMVKSADGHLTSLPFEKTQIPKESEARVRALLSETMPQLADRPFSFARVCWCADTANREFIIDRHPEHPSLVLGCGASGRGFKYLPSIGNLIVDAIEDKVPEKVHKLTRWSPDIAVDRKWRDTLGRFGGPNRVMDFHDVKEWTNVQNKDTAKL
B24 came in with a Specific activity (U/mg), 1 mM αF6P, purified enzyme of 0.0022 U/mg.
